In patent US20170137467A1 (CHROMOTEK, published 2017) one finds ratio data, which are given here for three molecules.

What all share (test): library pulldown, LC-MS of supernatant; ratio vs GFP-Nb control (0=captured, 1=not captured)
One test concerns the target T1, BC2T K4G (human).
T1 construct: position 4 library, row G
T1 peptide: Ac-PDRGAAVSHWQQ-NH2
From the text: (§1) In total, 12 different BC2T libraries displaying all 20 proteinogenic amino acids in one single position of the peptide were used in immunoprecipitation experiments. […] The direct comparison with the GFP-Nb made it possible to determine the quantitative degree of peptide capture without the need of labeled standards. […] The more peptide was captured the more the value approximates 0. It was not possible to discriminate between isoleucine (I) and leucine (L) peptide versions since these peptides are isobaric.
(§2) To investigate the binding specificity of the BC2T and derived mutants peptide libraries for each amino acid position of the sequence […] (SEQ ID NO:4) were synthesized with acetyl and amide groups located at the N-termini or C-termini respectively (Intavis). […] Incubations were performed in 300 μl PBS/0.01% CHAPS for 1 h on a HulaMixer (Life Technologies). Subsequent to a centrifugation step 10 μl supernatant were analyzed in a LC-MS procedure. Peptides were separated using an UltiMate3000 RSLCnano System (Thermo Scientific), composed of a C18 PepMap100μ-Precolumn (300 μm×5 mm; particle size: 5 μm; pore size: 100 Å—Thermo Scientific) and a C18 analytical column (Acclaim Rapid Separation LC (RSLC) Column: 150 mm×5 mm; particle size: 2.2 μm; pore size: 100 Å—Thermo Scientific). A step gradient was applied starting at 8% and ending after 20 min at 30% eluent B (80% acetonitrile, 20% H₂O, 0.1% formic acid).

For another test, the target named is T2, BC2T D2A (human).
T2 construct: position 2 library, row A
T2 peptide: Ac-PARKAAVSHWQQ-NH2
Description: as §1, §2

The target of another test is T3, BC2T K4(I/L2).
T3 construct: position 4 library, row I/L2
Description: as §1, §2

A further test has as its target T4, BC2T A5(I/L2).
T4 construct: position 5 library, row I/L2
Description: as §1, §2

A further test concerns the target T5, BC2T A6(I/L2).
T5 construct: position 6 library (BC2TA6X), row I/L2
Description: as §1, §2

The next test deals with T6, BC2T K4M (human).
T6 construct: position 4 library, row M
T6 peptide: Ac-PDRMAAVSHWQQ-NH2
Description: as §1, §2

The next test concerns the target T7, BC2T R3(I/L2).
T7 construct: position 3 library (BC2TR3X), row I/L2
Description: as §1, §2

The next test addresses T8, BC2T P1(I/L2).
T8 construct: position 1 library, row I/L2
Description: as §1, §2

In another test the target is T9, BC2T A6V (human).
T9 construct: position 6 library (BC2TA6X), row V
T9 peptide: Ac-PDRKAVVSHWQQ-NH2
Description: as §1, §2

In a further test the target is T10, BC2T V7(I/L1).
T10 construct: position 7 library, row I/L1
Description: as §1, §2

For a further test, the target named is T11, BC2T P1V (human).
T11 construct: position 1 library, row V
T11 peptide: Ac-VDRKAAVSHWQQ-NH2
Description: as §1, §2

The target of another test is T12, BC2T D2(I/L1).
T12 construct: position 2 library, row I/L1
Description: as §1, §2

Another test addresses T13, BC2T A5V (human).
T13 construct: position 5 library, row V
T13 peptide: Ac-PDRKVAVSHWQQ-NH2
Description: as §1, §2

Another test deals with T14, BC2T K4V (human).
T14 construct: position 4 library, row V
T14 peptide: Ac-PDRVAAVSHWQQ-NH2
Description: as §1, §2

A further test has as its target T15, BC2T D2M (human).
T15 construct: position 2 library, row M
T15 peptide: Ac-PMRKAAVSHWQQ-NH2
Description: as §1, §2

The next test deals with T16, BC2T P1A (human).
T16 construct: position 1 library, row A
T16 peptide: Ac-ADRKAAVSHWQQ-NH2
Description: as §1, §2

For another test, the target named is T17, BC2T V7G (human).
T17 construct: position 7 library, row G
T17 peptide: Ac-PDRKAAGSHWQQ-NH2
Description: as §1, §2

A further test has as its target T18, BC2T K4(I/L1).
T18 construct: position 4 library, row I/L1
Description: as §1, §2

The target in the next test is T19, BC2T R3(I/L1).
T19 construct: position 3 library (BC2TR3X), row I/L1
Description: as §1, §2

The target of another test is T20, BC2T V7M (human).
T20 construct: position 7 library, row M
T20 peptide: Ac-PDRKAAMSHWQQ-NH2
Description: as §1, §2

In the next test the target is T21, BC2T P1G (human).
T21 construct: position 1 library, row G
T21 peptide: Ac-GDRKAAVSHWQQ-NH2
Description: as §1, §2

The next test concerns the target T22, BC2T A6G (human).
T22 construct: position 6 library (BC2TA6X), row G
T22 peptide: Ac-PDRKAGVSHWQQ-NH2
Description: as §1, §2

A further test concerns the target T23, BC2T P1(I/L1).
T23 construct: position 1 library, row I/L1
Description: as §1, §2

Residue numbers refer to the chain shown, from its start.

B1: BC2 nanobody (BC2-Nb) (VHH)
VHH: QVQLVESGGGLVQPGGSLTLSCTASGFTLDHYDIGWFRQAPGKEREGVSCINNSDDDTYYADSVKGRFTIFMDNAKDTVYLQMNSLKPEDTAIYYCAEARGCKRGRYEYDFWGQGTQVTVSS
notes: immobilised on agarose/sepharose beads in this assay; also called BC2 nanotrap (immobilised form); not shown: C-terminal 6xHis-tag added by pHEN6 vector
With B1, the ratio was 0.6 with BC2T K4G; 0.2 in the test with BC2T D2A; 0.2 in the test with BC2T K4(I/L2); 0.1 with BC2T A5(I/L2); 0.9 in the test with BC2T A6(I/L2); 0.1 in the test with BC2T K4M. Further, the ratio with BC2T R3(I/L2) was 0.5; in the test with BC2T P1(I/L2) it was 0.3; with BC2T A6V, 0.3; with BC2T V7(I/L1) it was 0.1; with BC2T P1V, 0.2; with BC2T D2(I/L1), 0.1. The ratio in the test with BC2T A5V amounted to 0.1; with BC2T K4V, 0.1; with BC2T D2M, 0.1; in the test with BC2T P1A, 0.1; with BC2T V7G, 0.7; with BC2T K4(I/L1) it was 0.1. Also, the ratio is 0.5 with BC2T R3(I/L1); 0.3 in the test with BC2T V7M; 0.4 in the test with BC2T P1G; 0.7 with BC2T A6G; 0.4 with BC2T P1(I/L1).

B2: BC2-NbR106E (VHH)
VHH: B1 VHH with R106E
notes: immobilised on beads in this assay; not shown: C-terminal 6xHis-tag added by pHEN6 vector
Turning to B2, the ratio with BC2T K4G was found to be 0.9; in the test with BC2T D2A it was 0.2; with BC2T K4(I/L2) it was 0.5; in the test with BC2T A5(I/L2) it was 0.1; with BC2T A6(I/L2), 0.8; with BC2T K4M, 0.3. The ratio turned out to be 0.9 with BC2T R3(I/L2); 0.5 with BC2T P1(I/L2); 0.3 with BC2T A6V; 0.1 with BC2T V7(I/L1); 0.3 with BC2T P1V; 0.1 with BC2T D2(I/L1). The ratio was found to be 0.1 with BC2T A5V; 0.1 with BC2T K4V; 0.1 with BC2T D2M; 0.2 in the test with BC2T P1A; 0.7 in the test with BC2T V7G; 0.3 in the test with BC2T K4(I/L1). Further, the ratio in the test with BC2T R3(I/L1) is 0.9; with BC2T V7M, 0.3; with BC2T P1G, 0.5; with BC2T A6G, 0.8; with BC2T P1(I/L1) it was 0.6.

B3: BC2-NbR106S (VHH)
VHH: B1 VHH with R106S
notes: as for B2
Take B3: the ratio stood at 0.9 with BC2T K4G; 0.4 with BC2T D2A; 0.6 with BC2T K4(I/L2); 0.2 in the test with BC2T A5(I/L2); 0.9 with BC2T A6(I/L2); 0.5 with BC2T K4M. Also, the ratio in the test with BC2T R3(I/L2) was found to be 0.9; in the test with BC2T P1(I/L2), 0.6; with BC2T A6V it was 0.6; with BC2T V7(I/L1), 0.3; with BC2T P1V, 0.4; with BC2T D2(I/L1), 0.2. The ratio with BC2T A5V turned out to be 0.2; with BC2T K4V it was 0.2; with BC2T D2M, 0.2; with BC2T P1A it was 0.3; with BC2T V7G, 0.8; in the test with BC2T K4(I/L1), 0.4. In addition, the ratio in the test with BC2T R3(I/L1) came out at 0.9; with BC2T V7M, 0.5; in the test with BC2T P1G, 0.6; with BC2T A6G, 0.9; with BC2T P1(I/L1), 0.7.
